The record followed here is patent publication US20170334973A1.

In test [1] the target is RESTV GP (Reston virus) (UniProt Q66799).
In test [2] the target is SUDV GPdTM (Sudan virus) (UniProt Q66814).
In test [3] the target is EBOV GPdTM (Ebola virus) (UniProt Q05320).
The target in test [4] is SUDV GPdTM (Sudan virus) (UniProt Q66814). This is another data set of the same source.
In test [5] the target is EBOV GPdTM (Ebola virus) (UniProt Q05320). The source holds these as a separate data set.
Test [6] concerns the target RESTV GP (Reston virus) (UniProt Q66799). The source holds these as a separate data set.
The target of test [7] is SUDV GPdTM (Sudan virus) (UniProt Q66814). This is another data set of the same source.
Test [8] deals with EBOV GPdTM (Ebola virus) (UniProt Q05320). The source holds these as a separate data set.

Read-outs that look alike come from different tables or passages of the source.

For orientation: EC50 means the concentration that produces a half-maximal response. Read a high EC50 as a less potent agent. In the case of FVM09 (antibody), the EC50 with RESTV GP (Reston virus) [1] is under 0.015 µg/mL; in the test with SUDV GPdTM (Sudan virus) [2], under 0.015 µg/mL; in the test with EBOV GPdTM (Ebola virus) [3] it was under 0.015 µg/mL; with SUDV GPdTM (Sudan virus) [4], 9.73 nM; with EBOV GPdTM (Ebola virus) [5], 7.2 nM; with RESTV GP (Reston virus) [6], 0.01 µg/mL. Besides, the half-maximal effective concentration (EC50) with SUDV GPdTM (Sudan virus) [7] was 0.011 µg/mL; with EBOV GPdTM (Ebola virus) [8] it was 0.008 µg/mL.
